From the DeepSol protein solubility set come the findings set out here.

This data set in a line: soluble on expression in E. coli; label from the status in PepcDB or PDB records.
As for “MQANAIDFENYELLQDDVCARRIVAAKQKLGKRAIILAHHYQRADVYCHADLTGDSLKLSYLAARTDTEFLVFCGVHFMAEVADILSSSEQTVILPDLSAGCSMADMANLTKVERVWRELAEVLDPDERVTPVTYINSSADLKAFCGQHDGIVCTSSNAVKILQWAFSRREKVLFFPDQHLGRWSGYKMGLSPDEMPVWDFDEPMGGLTPEQIEKARILLWKGHCSVHQMFQPQHILRFRNQYPDGLVISHPECSFEVCKASDYVGSTEYIINTIRAAKSGTRWLVGTELNLVGRIAEEFKAEGKIIQFMSPMVCMCSTMARIDPQHLAWSLENLAEGRVVNQIRVPEPQASLAKLTLEKMLEVSKLEHHHHHH”, the “soluble on expression in E. coli” value was “not soluble”.

On to “MQAWIQQGLHGMQMGGRVGNYDQTFVVYGPVFLPNATQSKISEINYGGKILLPSSALNLLMQYNIPMPMLFKLTNMAVQRVTHCGVLEFSAPEGQAILPLWMMQQLGLDDGDTIRIESATLPKATFAKLKPMSLEFLNITNPKAVLEVELRKYACLTKNDRIPTSYAGQTLEFLVVDLKPANSVCIIECDVNLDFDPPEGYVEQPRQVTPAVTAKPPAPDASAFIGAGQKAGGSGGTGQNATSVFGGAGRRLDGKKKPSSSVSLSDGTGVSTSNAAPVANDLPAIPPVVVNEDYKPGRVSFLRYDYKRVDVLEKELREKEASKAGQPSNVFRGGNRTLRGAR”, for which the “soluble on expression in E. coli” value is “not soluble”.

As for “MQDDPSTSPLTHSATLRRLLYEALDALGLDPTRVYRSVYRRIPLPPPTLGGRLVHDNAPLFWTELAAVTGDADIGLHLGEAMKPRLLDVVGYLLLSARDLEEALRSFVRFQHILSGGFAARLEVEGETARLILDINYLGYASLRQQIECLMLLFLKLLALISDDEFVAERIEFRHRAPPRLGEHRRLFGRLPLFSRPHDALVFSAALLRRPSRNANPDMHDVLTRHAEEQSRELSENRLLNRVRYLIELRLGEGYGLRQCAAELGLGSGALQRALAAGGASFRQVRDEVRRQRASEMLLAGRAIREVAKACGFAELSPFYRAFRRWHAAPPEQYRARLAKREEGYSTSGT”, the “soluble on expression in E. coli” value is recorded as “not soluble”.

Turning to “MQDEFYMARALKLAQRGRFTTHPNPNVGCVIVNNGDIVGEGYHHRAGEPHAEVHALRMAGAKAKGATAYVTLEPCSHHGRTPPCCDALIAAGVARVVAAMQDPNPQVAGRGLYRLQQAGIAVSHGLMMSEAEALNKGFLKRMRTGFPYLQLKLGASVDGRTAMASGESQWITSPQARRDVQRLRAQSHAILTSSATVLADDPALTVRWAELDASTQASYPQENLRQPVRIVIDSQNRVTPAHRIVQQPGETWIARTQEDSRAWPDAVRTISVPAHNGHLDLVVLMMQLGRQQINSIWVEAGPGLAGALLQAGLVDELIVYVAPKLLGTQARGLCELPGLEKLADAPQFTFSEIRHVGPDVCLHMVSA”, the “soluble on expression in E. coli” value is on record as “soluble”.

“MQDEKNFMSGVKENLDVLFTKLEKFLRTETVIGQPIKVGETTLIPIVTVMFGCGTGGGVGDNKGIKGQGGGLGTGARISPDAVLVIKNDDVQMLPVKKGANLSKLIEMVPEIVSKIKIDKENKEKEEVKKEENLEHHHHHH”: the “soluble on expression in E. coli” value was “soluble”.

For the sequence “MQDKYGVNHDHYCYESSDVLINLLNIRDPDELTQAEADFNLIRYSEYCSDLDELEDFDSNHFLNLHWVLFQDIYEWAGTIRDVDISKANTRFCTCSRVEPELNKAISRIPLIRFCRNKHELVALVADIFSDLNVVHPFREGNGRTTRFFFEELLHVAGYRIEWPVITKEEWVDANIHGYFGQLHKLEVIFDAAIIESLEHHHHHH”, the “soluble on expression in E. coli” value is on record as “not soluble”.

Turning to “MQDQVIICDLDNTIFDTSSIDPELFASLLHKATEYLSGSFTAEIILSIIQDIVSNPFDRVCEKYGLPKSMILPVLDELNGISLEHSAMVPYEDYAAFRAIPAYKILVTTGFKRLQEEKLRKLQIRQDFDRIIINDPVYANSSKLDIFRELSRELDLKDRKTYVVGDDPASEIKAGRELGFTTVLMVRKEYLSNSYTDYIISSFEGLRDLLRDNMENDYALRK”, the “soluble on expression in E. coli” value is “soluble”.

For the sequence “MQDTLPIHFAPLQGYTEAIYRNAHDAFFGGVDTYYTPFVRLEKGNFRRRDVRGIEPENNGVPHLIPQLIASSAEKAEVILSLFIEKGYQEVDINLGCPFPLLAKRHNGSGILPYPEEVKALLSIVTRYPQISFSVKMRLGWEQPDECLALAPILNDLPLRQITMHPRLGKQGYKGEVDLQGFSAFREVCQLPLVYNGDIHNLEDIQRISTQFPSLAGIMIGRGLLANPALALEYKENRTLAPDEMRDRLKSMHKSVYNNYDVLLEGGEGQLLTKMKTFWEYLAPQTDRKVLKAIHKSTNISKYYQAVSAFFNQR”, the “soluble on expression in E. coli” value is on record as “not soluble”.

Turning to “MQEESYYNLTVGDTHDRLHNFQITVDTDYRNFVQLVNTMRSPNIAQQDRAFLQLQQLGLQHPDYIRKARVPETMRQFAEGAAGKRRIRSCHGTYLHWYDEGLKVDMKSGEAGTCENWIIEDWNEKVVFRAVDPRGKYLRACLGSNQLTLVYIPEPTELWSPFENGNGTWSFLSSNGTWLSAHEDGQVCTVKDRQACEEFLLESW”, the “soluble on expression in E. coli” value is recorded as “not soluble”.

For the sequence “MQFLHILLLSILSLIFISSVQAVPSDQDIEALMGLQDQVNAFLGESNMSPEAKKKIEDMMAKKQAAIENSLGRK”, the “soluble on expression in E. coli” value is “soluble”.

For the sequence “MQFSCSIPLPATFRPGDILAFHRRDRQEIAERVNHASVQKAMIWCGAPAYLSISFEPGLAKASLVIDGKIAEDRQPIFEGMVRRMLGLTQEIEIFEERYRDHPQLGILIAQQPGLRVPVTATPFEALTWAVTGQQISVNAAVSLRRKLIGATNTPHSCGLFCYPDARRILELPEETLRQAGFSTTKTRTLLALSALVADNELPLDAWVETLPVDVIREKLEAVRGIGPWTVNYGLLRGFGWLDGSLHGDAAVRRGLQALLGAQDKISEENTKVWLAQFSPWRALVGAHLWAAPVAIALEHHHHHH”, the “soluble on expression in E. coli” value is “not soluble”.

In the case of “MQGQHPPAELPSLRRQKILLLLERDGKVMAAELSRHFAVSEDTIRRDLAELDAGGLVQRVHGGALPRPKDSGKDYFTRVGETNEAKLRLAQYAVQWVQDGQTVLFDSGSTTLHIAQSLPAGISLTAVTASPMIAVALAEYPKVRVILAGGQLNPATLSASGHEALRMIQGIKADLMFTGVCAIHPEIGISSLHFDEVPIKQAMFDSASEVIAVTTADKLGAMEPFVVVPCNRLHRLVTEQEAPGVDIEGYRQLGIEVLQVLEHHHHHH”, the “soluble on expression in E. coli” value is “not soluble”.

For “MQIKLPKPFFFEEGKRAVLLLHGFTGNSSDVRQLGRFLQKKGYTSYAPQYEGHAAPPDEILKSSPFVWFKDALDGYDYLVEQGYDEIVVAGLSLGGDFALKLSLNRDVKGIVTMCAPMGGKTEGAIYEGFLEYARNFKKYEGKDQETIDNEMDHFKPTETLKELSEALDTIKEQVDEVLDPILVIQAENDNMIDPQSANYIYDHVDSDDKNIKWYSESGHVITIDKEKEQVFEDIYQFLESLDWSE”, the “soluble on expression in E. coli” value is “not soluble”.

On to “MQKESQTYKIAPAERLASVSEYYFSKKLKEVAQMNAEGKDVISLGIGSPDMPPSKVTIETLCNNAHDPNGHGYQPYVGIPELRKGFAAWYQRWYGVELNPNTEIQPLIGSKEGILHVTLAFVNPGEQVLVPNPGYPTYTSLSKILGAEVISYDLKEEDGWMPDFEALEKMDLNRVKLMWTNYPNMPTGANATPELYERLVDFARRKNIVIVNDNPYSFILNEKPISILSVPGAKECCIEFNSMSKSHNMPGWRIGMLASNAEFVQWILKVKSNIDSGMFRAMQLAAATALEAEADWYEGNNHNYRGRRHLAGEIMKTLGCTYDENQVGMFLWGKIPASCKDVEELTEKVLHQARVFITPGFIFGSNGARFIRISLCCKDAKLAEALERIKKLS”, for which the “soluble on expression in E. coli” value is given as “not soluble”.

In the case of “MQKIDEKLQLMNTIAKIYRGSIKEFNNRLGKLMNLSYLDFSILKATSEEPRSMVYLANRYFVTQSAITAAVDKLEAKGLVRRIRDSKDRRIVIVEITPKGRQVLLEANEVLRNLVNEMLSDVENVEELLEGLNKILSRIGSSKD”, the “soluble on expression in E. coli” value was “soluble”.

On to “MQKVRLIVSGRVQGVGFRYATHTLALDIGDIYGRVWNNNDGTVEILAQSKDSDKIATFIQEVRKGPSKWAKVTYVDVTMANFEDFQDFQIGK”, for which the “soluble on expression in E. coli” value was “not soluble”.

Turning to “MQKWIGIMGIIFILTGCKMSEAPTNLMEAPANEKWINELKEQIDKDLPVNYRLLTPMSNKDKQMIWSMDFKQDNKKEAVIFYKLPNADHSVYLAVYEKNGNGWKTKSTHKFNGGDVDIVEVGDFTGNGKRELLIGISVDRESLKHVMYVFSEENEDMREIYNRNYTKLFIDDLNKNGLKDLSLVTYEKDEKLIVEFIEQFKTLSEASFDPFINSIQRIQMGRISKSLKAIVIDAGVGAHSGITYVAKFDENHYEVLPIDGKEDLFNEYVVESKDVNEDGIIEFVRTVRPKGWEDKPHGDSPLFERYIQWSESGIKPIEERYIDIEKGYYVKIPKELIGKITISDEQKESNSQKFLETSTNETWLEVHIFKRKEWFGIKGYSAAVKTASHVYAVPKQPHFEKVKAYVKPLADYQQE”, the “soluble on expression in E. coli” value is listed as “not soluble”.

Regarding “MQLNATFYSGTCPNASAIVRSTIQQALQSDTRIGASLIRLHFHDCFVNGCDASILLDDTGSIQSEKNAGPNVNSARGFNVVDNIKTALENACPGVVSCSDVLALASEASVSLAGGPSWTVLLGRRDSLTANLAGANSSIPSPIESLSNITFKFSAVGLNTNDLVALSGAHTFGRARCGVFNNRLFNFSGTGNPDPTLNSTLLSTLQQLCPQNGSASTITNLDLSTPDAFDNNYFANLQSNDGLLQSDQELFSTTGSSTIAIVTSFASNQTLFFQAFAQSMINMGNISPLTGSNGEIRLDCKKVNGS”, the “soluble on expression in E. coli” value is on record as “soluble”.

Take “MQLNETAVGEKVRISELKIENAMLKRRLLALGCDEGCDICIKQKGLFGGPCTFETKGQYISIRQCDACAIMVERRLEHHHHHH”: the “soluble on expression in E. coli” value is “not soluble”.

Turning to “MQLVREKEFVNQYHYDARNLEWEKENGTPETNFEVTFQLIDKDEQQKETVIVSVLQFVIVKEEFVISGVISQMVRILDRLVDKPSEFTQEEVESLAAPLLDMVKRLTYEVTEIALDRPGIHLEFKN”, the “soluble on expression in E. coli” value is “not soluble”.

Consider “MQNEKLDHESVTQAMQPKDTPELRALYKSFEEESIIPLWTQLGDLMPIHPKSKAVPHVWKWSTLLRLARKSGELVPVGRGGERRALGLANPGLGGNAYISPTMWAGIQYLGPRETAPEHRHSQNAFRFVVEGEGVWTVVNGDPVRMSRGDLLLTPGWCFHGHMNDTDQPMAWIDGLDIPFSQQMDVGFFEFGSDRVTDYATPNFSRGERLWCHPGLRPLSGLQNTVASPIGAYRWEFTDRALTEQLLLEDEGQPATVAPGHAAIRYVNPTTGGDVMPTLRCEFHRLRAGTETATRNEVGSTVFQVFEGAGAVVMNGETTKLEKGDMFVVPSWVPWSLQAETQFDLFRFSDAPIMEALSFMRTKIEGQK”, for which the “soluble on expression in E. coli” value is reported as “soluble”.

With “MQNLRRAVFAGLVAGTLSEGAAATAGDGGFVEDSELQFLARTYYFNRDYRDSPNNAGRNRFKPRSERNGYREEATQGLRLQFASGYTPGSLGFGLDAHAMLGLQLDSGGGRTGTGNLPVGADGHPDHRYGKVGGALRLRHGETRLKYGQTTTSAPVFAASSNRTLAGMAYGLLLEDRSFDGLLLEGGRFTAASGPGESKVRGDISTVYGRLGAYPVRLDAVGFLGGQWQATERLQLSLYASRFDDIWQQAYFGASHRQPLGGERALRVDLDAYRTRDSGQSRFGRIDTLTSSLALGYEHGPQRITLAYQRVHGEQPFDYMAFGDGRSSASMVLANSVGYSDFNGPGERSWQLRYDLDLGALGLPGLSLHALHARGRAGASASSAAESIYAGLYGRDGRHRENDLGFAYRVKAGPLAGLALRASQAWHRGNASYLDGDIDETRLVVDYSRSIW”, the “soluble on expression in E. coli” value is reported as “not soluble”.

Take “MQNRKFLTHHEINLLLQSVKQKSCSSRDVCMILLAYFHGLRVSELLSLQLSDLELTTEKIYIQRIKNGFSTVHPLQKEEVIAITNWLNERNSLNVKHFNDNPWLFVSRTGKPLSRQRFYNI”: the “soluble on expression in E. coli” value was “not soluble”.
